Our source for the Kd and kon values is patent publication US20170015742A1 (published 2017).

Where only a bound is given, the exact number is not on record here.

First the molecules themselves.
B1: hBDI-5H1.3 (antibody, V domains shown)
VH: EVTLRESGPALVKPTQTLTLTCTFSGFSLSTFGMGVGWIRQPPGKALEWLANIWWDDDKYYNPSLKNRLTISKDTSKNQVVLTMTNMDPVDTATYYCARISTGISSYYVMDAWGQGTTVTVSS
VL: EIVLTQSPGTLSLSPGERATLSCERSSGDIGDTYVSWYQQKPGQAPRLLIYGNDQRPSGIPDRFSGSGSGTDFTLTISRLEPEDFAVYYCQSYDSDIDIVFGGGTKVEIK
notes: Humanized IgG
B2: hBDI-5H1.4 (antibody, V domains shown)
VH: EVTLRESGPALVKPTQTLTLTCTFSGFSLSTFGMGVGWIRQPPGKALEWLANIWWDDDKYYNPSLKNRLTISKDTSKNQVVLTMTNMDPVDTATYYCARISTGISSYYVMDAWGQGTTVTVSS
VL: EFVLTQSPGTLSLSPGERATLSCERSSGDIGDTYVSWYQQKPGQAPRLVIYGNDQRPSGIPDRFSGSGSGTDFTLTISRLEPEDFAVYYCQSYDSDIDIVFGGGTKVEIK
notes: Humanized IgG
B3: hBDI-9E8.11 (antibody, V domains shown)
VH: EVQLVESGGGLVQPGGSLRLSCAFSGFSLSTYGMGVGWIRQAPGKGLEWLANIWWDDDKYYNPSLKNRLTISKDTSKNQAYLQINSLRAEDTAVYYCARIESIGTTYSFDYWGQGTLVTVSS
VL: DFVLTQSPDSLAVSLGERATINCERSSGDIGDSYVSWYQQKPGQPPKNVIYADDQRPSGVPDRFSGSGSGNSASLTISSLQAEDVAVYFCQSYDINIDIVFGGGTKVEIK
notes: Humanized IgG
B4: hBDI-9E8.12 (antibody, V domains shown)
VH: EVQLVESGGGLVQPGGSLRLSCAFSGFSLSTYGMGVGWIRQAPGKGLEWLANIWWDDDKYYNPSLKNRLTISKDTSKNQAYLQINSLRAEDTAVYYCARIESIGTTYSFDYWGQGTLVTVSS
VL: DFQLTQSPSSLSASVGDRVTITCERSSGDIGDSYVSWYQQKPGKAPKNVIYADDQRPSGVPSRFSGSGSGNSASLTISSLQPEDFATYYCQSYDINIDIVFGQGTKVEIK
notes: Humanized IgG
B5: hBDI-5H1.9 (antibody, V domains shown)
VH: EVTLRESGPALVKPTQTLTLTCTFSGFSLSTFGMGVGWIRQPPGKALEWLANIWWDDDKYYNPSLKNRLTISKDTSKNQAVLTITNMDPVDTATYYCARISTGISSYYVMDAWGQGTTVTVSS
VL: DFVLTQSPDSLAVSLGERATINCERSSGDIGDTYVSWYQQKPGQPPKNVIYGNDQRPSGVPDRFSGSGSGNSATLTISSLQAEDVAVYFCQSYDSDIDIVFGGGTKVEIK
notes: Humanized IgG
B6: hBDI-9E8.1 (antibody, V domains shown)
VH: EVTLRESGPALVKPTQTLTLTCTFSGFSLSTYGMGVGWIRQPPGKALEWLANIWWDDDKYYNPSLKNRLTISKDTSKNQVVLTMTNMDPVDTATYYCARIESIGTTYSFDYWGQGTMVTVSS
VL: NFMLTQPHSVSESPGKTVTISCERSSGDIGDSYVSWYQQRPGSSPTTVIYADDQRPSGVPDRFSGSIDSSSNSASLTISGLKTEDEADYYCQSYDINIDIVFGGGTKLTVL
notes: Humanized IgG
B7: hBDI-9E8.3 (antibody, V domains shown)
VH: EVTLRESGPALVKPTQTLTLTCTFSGFSLSTYGMGVGWIRQPPGKALEWLANIWWDDDKYYNPSLKNRLTISKDTSKNQVVLTMTNMDPVDTATYYCARIESIGTTYSFDYWGQGTMVTVSS
VL: EIVLTQSPGTLSLSPGERATLSCERSSGDIGDSYVSWYQQKPGQAPRLLIYADDQRPSGIPDRFSGSGSGTDFTLTISRLEPEDFAVYYCQSYDINIDIVFGGGTKVEIK
notes: Humanized IgG
B8: hBDI-5H1.1 (antibody, V domains shown)
VH: EVTLRESGPALVKPTQTLTLTCTFSGFSLSTFGMGVGWIRQPPGKALEWLANIWWDDDKYYNPSLKNRLTISKDTSKNQVVLTMTNMDPVDTATYYCARISTGISSYYVMDAWGQGTTVTVSS
VL: NFMLTQPHSVSESPGKTVTISCERSSGDIGDTYVSWYQQRPGSSPTTVIYGNDQRPSGVPDRFSGSIDSSSNSASLTISGLKTEDEADYYCQSYDSDIDIVFGGGTKLTVL
notes: Humanized IgG
B9: hBDI-9E8.10 (antibody, V domains shown)
VH: EVTLRESGPALVKPTQTLTLTCTFSGFSLSTYGMGVGWIRQPPGKALEWLANIWWDDDKYYNPSLKNRLTISKDTSKNQAVLTITNMDPVDTATYYCARIESIGTTYSFDYWGQGTTVTVSS
VL: DFQLTQSPSSLSASVGDRVTITCERSSGDIGDSYVSWYQQKPGKAPKNVIYADDQRPSGVPSRFSGSGSGNSASLTISSLQPEDFATYYCQSYDINIDIVFGQGTKVEIK
notes: Humanized IgG
B10: hBDI-9E8.9 (antibody, V domains shown)
VH: EVTLRESGPALVKPTQTLTLTCTFSGFSLSTYGMGVGWIRQPPGKALEWLANIWWDDDKYYNPSLKNRLTISKDTSKNQAVLTITNMDPVDTATYYCARIESIGTTYSFDYWGQGTTVTVSS
VL: DFVLTQSPDSLAVSLGERATINCERSSGDIGDSYVSWYQQKPGQPPKNVIYADDQRPSGVPDRFSGSGSGNSASLTISSLQAEDVAVYFCQSYDINIDIVFGGGTKVEIK
notes: Humanized IgG
B11: hBDI-9E8.6 (antibody, V domains shown)
VH: EVTLRESGPALVKPTQTLTLTCTFSGFSLSTYGMGVGWIRQPPGKGLEWLANIWWDDDKYYNPSLKNRLTISKDTSKNQAVLTITNMDPVDTATYYCARIESIGTTYSFDYWGQGTMVTVSS
VL: NFMLTQPHSVSESPGKTVTISCERSSGDIGDSYVSWYQQRPGSPPTNVIYADDQRPSGVPDRFSGSIDSSSNSASLTISGLKTEDEADYFCQSYDINIDIVFGGGTKLTVL
notes: Humanized IgG
B12: hBDI-9E8.4 (antibody, V domains shown)
VH: EVTLRESGPALVKPTQTLTLTCTFSGFSLSTYGMGVGWIRQPPGKALEWLANIWWDDDKYYNPSLKNRLTISKDTSKNQVVLTMTNMDPVDTATYYCARIESIGTTYSFDYWGQGTMVTVSS
VL: EFVLTQSPGTLSLSPGERATLSCERSSGDIGDSYVSWYQQKPGQAPRLVIYADDQRPSGIPDRFSGSGSGTDFTLTISRLEPEDFAVYYCQSYDINIDIVFGGGTKVEIK
notes: Humanized IgG
B13: hBDI-9E8.2 (antibody, V domains shown)
VH: EVTLRESGPALVKPTQTLTLTCTFSGFSLSTYGMGVGWIRQPPGKALEWLANIWWDDDKYYNPSLKNRLTISKDTSKNQVVLTMTNMDPVDTATYYCARIESIGTTYSFDYWGQGTMVTVSS
VL: NFMLTQPHSVSESPGKTVTISCERSSGDIGDSYVSWYQQRPGSPPTNVIYADDQRPSGVPDRFSGSIDSSSNSASLTISGLKTEDEADYFCQSYDINIDIVFGGGTKLTVL
notes: Humanized IgG
B14: hBDI-5H1.2 (antibody, V domains shown)
VH: EVTLRESGPALVKPTQTLTLTCTFSGFSLSTFGMGVGWIRQPPGKALEWLANIWWDDDKYYNPSLKNRLTISKDTSKNQVVLTMTNMDPVDTATYYCARISTGISSYYVMDAWGQGTTVTVSS
VL: NFMLTQPHSVSESPGKTVTISCERSSGDIGDTYVSWYQQRPGSPPTNVIYGNDQRPSGVPDRFSGSIDSSSNSASLTISGLKTEDEADYFCQSYDSDIDIVFGGGTKLTVL
notes: Humanized IgG
B15: hBDI-5H1.5 (antibody, V domains shown)
VH: EVTLKESGPALVKPTQTLTLTCTFSGFSLSTFGMGVGWIRQPPGKALEWLANIWWDDDKYYNPSLKNRLTISKDTSKNQAVLTITNMDPVDTATYYCARISTGISSYYVMDAWGQGTTVTVSS
VL: NFMLTQPHSVSESPGKTVTISCERSSGDIGDTYVSWYQQRPGSSPTTVIYGNDQRPSGVPDRFSGSIDSSSNSASLTISGLKTEDEADYYCQSYDSDIDIVFGGGTKLTVL
notes: Humanized IgG
B16: hBDI-9E8.7 (antibody, V domains shown)
VH: EVTLRESGPALVKPTQTLTLTCTFSGFSLSTYGMGVGWIRQPPGKGLEWLANIWWDDDKYYNPSLKNRLTISKDTSKNQAVLTITNMDPVDTATYYCARIESIGTTYSFDYWGQGTMVTVSS
VL: EIVLTQSPGTLSLSPGERATLSCERSSGDIGDSYVSWYQQKPGQAPRLLIYADDQRPSGIPDRFSGSGSGTDFTLTISRLEPEDFAVYYCQSYDINIDIVFGGGTKVEIK
notes: Humanized IgG
B17: hBDI-5H1.6 (antibody, V domains shown)
VH: EVTLKESGPALVKPTQTLTLTCTFSGFSLSTFGMGVGWIRQPPGKALEWLANIWWDDDKYYNPSLKNRLTISKDTSKNQAVLTITNMDPVDTATYYCARISTGISSYYVMDAWGQGTTVTVSS
VL: NFMLTQPHSVSESPGKTVTISCERSSGDIGDTYVSWYQQRPGSPPTNVIYGNDQRPSGVPDRFSGSIDSSSNSASLTISGLKTEDEADYFCQSYDSDIDIVFGGGTKLTVL
notes: Humanized IgG
B18: hBDI-9E8.5 (antibody, V domains shown)
VH: EVTLRESGPALVKPTQTLTLTCTFSGFSLSTYGMGVGWIRQPPGKGLEWLANIWWDDDKYYNPSLKNRLTISKDTSKNQAVLTITNMDPVDTATYYCARIESIGTTYSFDYWGQGTMVTVSS
VL: NFMLTQPHSVSESPGKTVTISCERSSGDIGDSYVSWYQQRPGSSPTTVIYADDQRPSGVPDRFSGSIDSSSNSASLTISGLKTEDEADYYCQSYDINIDIVFGGGTKLTVL
notes: Humanized IgG

The target in the experiment is T1, Human PDGF-BB (human, UniProt P01127 82-190).
T1 construct: Recombinant human PDGF-BB, a homodimer of two B chains; also called hPDGF-BB; huPDGF-BB
T1 sequence (P01127 82-190 limits assumed): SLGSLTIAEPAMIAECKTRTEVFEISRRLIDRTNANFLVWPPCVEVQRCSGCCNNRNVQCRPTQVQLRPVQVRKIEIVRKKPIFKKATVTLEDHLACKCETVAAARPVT
The experiment in a line: SPR (Biacore), antibody captured via anti-human Fc, antigen in solution. As to the method: For example, approximately 9000 RU of goat anti-human Fc specific polyclonal antibody (Thermo Fisher Scientific Inc., Rockford, Ill.) diluted in 10 mM sodium acetate (pH 4.5) is directly immobilized across a CM5 research grade biosensor chip using a standard amine coupling kit according to manufacturer's instructions and procedures at 25 μg/ml. Unreacted moieties on the biosensor surface were blocked with ethanolamine. For kinetic analysis, rate equations derived from the 1:1 Langmuir binding model were fitted simultaneously to multiple antigen injections (using global fit analysis) with the use of Scrubber 2 (BioLogic Software), Biacore Biaevaluation 4.0.1 software or Biacore T100 Evaluation software. Purified antibodies or DVD-Ig molecules were diluted in running buffer for capture across goat anti-human Fc reaction surfaces. Antibodies or DVD-Ig molecules to be captured as a ligand (1 μg/ml) were injected over reaction matrices at a flow rate of 10 μl/minute. During the assay, all measurements were referenced against the capture surface alone (i.e., with no captured antibody or DVD-Ig molecule). […] The equilibrium dissociation constant KD (M) of the reaction between antibodies and the target antigen was then calculated from the kinetic rate constants by the following formula: KD=Koff/Kₒₙ. Binding was recorded as a function of time and kinetic rate constants were calculated.
Background: Surface plasmon resonance follows binding to a sensor surface in real time, without labels.
On to B1, for which the Kd was ≤ 0.45 nM and the kon is ≥ 1e+07 M⁻¹ s⁻¹.

With B2, the Kd was ≤ 1.4 nM and the association rate constant (kon) is ≥ 1e+07 M⁻¹ s⁻¹.

For B3, the Kd was ≤ 0.074 nM and the kon is ≥ 1e+07 M⁻¹ s⁻¹.

Take B4: the Kd was ≤ 0.21 nM and the association rate constant (kon) is ≥ 1e+07 M⁻¹ s⁻¹.

For B5, the dissociation constant (Kd) is ≤ 0.31 nM and the kon was ≥ 1e+07 M⁻¹ s⁻¹.

As to B6, the Kd was ≤ 0.56 nM and the kon was ≥ 1e+07 M⁻¹ s⁻¹.

Consider B7, for which the Kd was ≤ 0.065 nM and the kon is ≥ 1e+07 M⁻¹ s⁻¹.

As for B8, the Kd is ≤ 0.41 nM and the kon was ≥ 1e+07 M⁻¹ s⁻¹.

As to B9, the Kd is ≤ 0.18 nM and the kon is ≥ 1e+07 M⁻¹ s⁻¹.

B10: the Kd was ≤ 0.15 nM and the kon was ≥ 1e+07 M⁻¹ s⁻¹.

Turning to B11, the Kd was ≤ 0.21 nM and the kon was ≥ 1e+07 M⁻¹ s⁻¹.

Consider B12, for which the Kd is ≤ 0.021 nM and the kon is > 1e+07 M⁻¹ s⁻¹.

Consider B13, for which the Kd was ≤ 0.51 nM and the kon was ≥ 1e+07 M⁻¹ s⁻¹.

In the case of B14, the Kd was ≤ 0.19 nM and the kon was ≥ 1e+07 M⁻¹ s⁻¹.

Turning to B15, the Kd is ≤ 0.17 nM and the kon was ≥ 1e+07 M⁻¹ s⁻¹.

In the case of B16, the Kd was ≤ 0.045 nM and the kon is ≥ 1e+07 M⁻¹ s⁻¹.

Take B17: the Kd was ≤ 0.082 nM and the kon was ≥ 1e+07 M⁻¹ s⁻¹.

For B18, the Kd was ≤ 0.21 nM and the kon is ≥ 1e+07 M⁻¹ s⁻¹.

The term Kd denotes the free concentration of one partner at which half of the binding sites on the other are occupied at equilibrium, for simple one-to-one binding. Low values mean tighter binding, high ones weaker binding. What is called kon is the second-order rate constant of association. A high value points to faster complex formation.
